Consider 5 molecules from patent US20190060453A1 (ONCOMED PHARMACEUTICALS, published 2019).

Positions count from the first letter of the chain named.

Experiment [1] deals with T1, DLL4 antigen protein (recombinant fragment of the extracellular domain of human DLL4, amino acids 1-522, Fc- … (human, UniProt Q9NR61 27-522)).
T1 construct: also called Human DLL4 Antigen; not shown: human Fc-tag or histidine-tag
As to the kind of experiment: Biacore; antibody purified by protein A; DLL4 form and format not stated. A general note: Surface plasmon resonance follows binding to a sensor surface in real time, without labels.

Experiment [2] addresses T1, DLL4 antigen protein (recombinant …). As to the kind of experiment: ELISA of conditioned medium, HEK 293 cells cotransfected with the murine 21M18 light chain. The protocol: The functionality of each candidate variant humanized heavy and light chain was tested by cotransfection into mammalian cells.
On the technique in general: In an ELISA, binding on a coated surface is turned into a signal by an enzyme label.

Experiment [3] shares this target. As to the kind of experiment: ELISA of conditioned medium, HEK293 cells. The source says: These heavy chains were cotransfected into HEK293 cells with L2, and conditioned media was again assayed.
Experiment [4] concerns the target T2, human DLL4 aa 1-323 fused to Fc (human, UniProt Q9NR61 27-323).
T2 construct: Predicted signal peptide 1-26 left out; also called aa 1-323 (printed as 1-323); not shown: Fc protein
Put plainly: ELISA, Fc fusion captured by anti-human Fc. The procedure: (§1) To identify antibodies that recognize specific regions of the DLL4 extracellular domain, epitope mapping was performed. Mammalian expression plasmid vectors comprising a CMV promoter upstream of polynucleotides that encode a nested series of deletion fragments of the extracellular domain of DLL4 fused to Fc protein were generated using standard recombinant DNA technology. Additional constructs that encoded fragments of DLL4 that were chimera of human and mouse DLL4 fused to Fc protein were also generated using standard recombinant DNA technology. A further series of DLL4-fc fusion proteins were designed that included specific amino acid substitutions. These recombinant fusion proteins were expressed in transiently transfected HEK 293 cells from which conditioned medium was collected twenty-four to forty-eight hours post-transfection for ELISA. The DLL4 fusion protein fragments were captured on plates coated with anti-human Fc antibodies. Anti-DLL4 antibodies were then allowed to interact with the bound DLL4 fragments and binding was measured by subsequent incubation with HRP conjugated anti-mouse antibody and detection of HRP activity (FIG. 3A). […] Additionally, anti-DLL4 mAbs were examined for binding to DLL4 fusion protein fragments by western blot analysis (FIG. 3B).

Experiment [5] concerns the target T3, human DLL4 aa 1-283 fused to Fc (human, UniProt Q9NR61 27-283).
T3 construct: Predicted signal peptide 1-26 left out; not shown: Fc protein
As to the kind of experiment: ELISA, Fc fusion captured by anti-human Fc. The protocol:
as §1

In experiment [6] the target is T4, human DLL4 aa 1-251 fused to Fc (human, UniProt Q9NR61 27-251).
T4 construct: Predicted signal peptide 1-26 left out; also called aa 1-251 (printed as 1-251); not shown: Fc protein
Put plainly: ELISA, Fc fusion captured by anti-human Fc. The protocol: as §1

In experiment [7] the target is T5, human DLL4 aa 1-217 fused to Fc (human, UniProt Q9NR61 27-217).
T5 construct: predicted signal peptide 1-26 left out; also called hDLL4dom1-3; not shown: Fc protein
As to the kind of experiment: ELISA, Fc fusion captured by anti-human Fc. The protocol:
as §1

Experiment [8] concerns the target T6, human DLL4 aa 1-96 fused to Fc (human, UniProt Q9NR61 27-96).
T6 construct: Printed as aa 1-96; not shown: Fc protein (human Fc by the capture and detection reagents)
As to the kind of experiment: ELISA, Fc fusion captured by anti-human Fc. The procedure:
as §1

Experiment [9] deals with T7, human DLL4 aa 1-154 fused to Fc (human, UniProt Q9NR61 27-154).
T7 construct: predicted signal peptide 1-26 left out; also called h-DLL4 dom1-2; not shown: Fc protein
Put plainly: ELISA, Fc fusion captured by anti-human Fc. The protocol: as §1

In the next experiment the target is T8, murine DLL4-Fc (murine, UniProt Q9JI71 27-525, limits assumed).
T8 construct: also called m-DLL4; not shown: Fc
Put plainly: FACS-based assay with human or murine DLL4-Fc (FIG. 2B). From the text: Binding was detected by fluorescently labeled anti-Fc and analyzed by FACS, with high fluorescence intensity indicative of binding between DLL4 and Notch1 expressing cells.

Experiment [10] concerns the target T9, human DLL4, full-length, on the surface of transfected cells (human, UniProt Q9NR61 27-685).
T9 construct: whole, on cells; HEK 293 cells (transient with GFP, or stably transduced) and 3T3 cells overexpressing human DLL4; also called native cell-surface DLL4 protein; Delta-like ligand 4
Put plainly: FACS on HEK 293 cells co-transfected with full-length DLL4 and GFP.

T8 sequence (Q9JI71 27-525 limits assumed): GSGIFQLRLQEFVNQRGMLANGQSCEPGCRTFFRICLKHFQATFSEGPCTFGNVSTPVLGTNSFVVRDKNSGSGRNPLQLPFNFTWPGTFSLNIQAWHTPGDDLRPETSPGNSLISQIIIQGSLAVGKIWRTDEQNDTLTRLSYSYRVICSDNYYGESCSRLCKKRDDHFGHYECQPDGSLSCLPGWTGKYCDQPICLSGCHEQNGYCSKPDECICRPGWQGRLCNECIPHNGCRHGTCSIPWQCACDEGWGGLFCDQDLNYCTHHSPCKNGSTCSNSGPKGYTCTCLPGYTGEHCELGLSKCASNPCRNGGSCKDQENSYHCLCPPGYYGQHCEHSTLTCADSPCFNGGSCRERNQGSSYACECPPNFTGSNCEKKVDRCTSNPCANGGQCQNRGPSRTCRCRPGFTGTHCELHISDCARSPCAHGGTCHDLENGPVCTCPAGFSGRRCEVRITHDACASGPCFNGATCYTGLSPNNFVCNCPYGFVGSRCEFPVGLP

B1: humanized 21M18 variant H2L2 (antibody, V domains shown)
VH: QVQLVQSGAEVKKPGASVKISCKASGYSFTAYYIHWVKQAPGQGLEWIGYISCYNGATNYNQKFKGRVTFTTDTSTSTAYMELRSLRSDDTAVYYCARDYDYDVGMDYWGQGTLVTVSS
VL: DIVMTQSPDSLAVSLGERATISCRASESVDNYGISFMKWFQQKPGQPPKLLIYAASNQGSGVPDRFSGSGSGTDFTLTISSLQAEDVAVYYCQQSKEVPWTFGGGTKVEIK
notes: also called 21M18 H2L2; 21M18 H2 with 21M18 L2
B1: the Kd in experiment [1] was about 0.33 nM.

B2: 21M18 H2 humanized heavy chain cotransfected with the murine 21M18 light chain (antibody, V domains shown)
VH: B1 VH
VL: not shown
notes: Tested as conditioned medium of HEK 293 cells; heavy chain on human IgG2 constant region; also called 21M18 H2 (with murine 21M18 light chain)
For B2, in [2], the binding result is given as “binds”.

B3: humanized 21M18 H9L2 (antibody, human IgG2, V domains shown)
VH: B1 VH with C53V
VL: B1 VL
notes: Variant of H2 with Kabat 52a Cys changed to Val; also called ATCC PTA-8427
Regarding B3, the binding result in experiment [3] was “binds”.

B4: humanized 21M18 H7L2 (antibody, human IgG2, V domains shown)
VH: B1 VH with C53S
VL: B1 VL
notes: Variant of H2 with Kabat 52a Cys changed to Ser; also called H7L2 21M18; ATCC PTA-8425
As to B4, in experiment [3], the binding result is listed as “binds”.

B5: murine monoclonal antibody 21M18 (antibody, V domains shown)
VH: EVQLQQSGPELVKTGASVKISCKASGYSFTAYYIHWVKQSHGKSLEWIGYISCYNGATNYNQKFKGKATFTVDTSSSTAFMQFNSLTSEDSAVYYCARDYDYDVGMDYWGQGTSVTVSS
VL: not shown
notes: Hybridoma-derived mouse antibody; both are alignment entries; also called m21M18; anti-DLL4 21M18
Consider B5, for which the binding result is given as “binds” in experiment [4]; “binds” in [5]; “binds” in [6]; “binds” in experiment [7]; “no binding” in [8]; “no binding” in experiment [9]. The binding result with murine DLL4-Fc is reported as “no binding”; in experiment [10], “binds”.

By Kd is commonly meant a measure of binding affinity in units of concentration.
